B1: Protein ripply3 (Homo sapiens), P57055 (parent)
chain: MEPEAAAGARKARGRGCHCPGDAPWRPPPPRGPESPAPWRPWIQTPGDAELTRTGRPLEPRADQHTFGSKGAFGFQHPVRVYLPMSKRQEYLRSSGEQVLASFPVQATIDFYDDESTESASEAEEPEEGPPPLHLLPQEVGGRQENGPGGKGRDQGINQGQRSSGGGDHWGEGPLPQGVSSRGGKCSSSK
partner: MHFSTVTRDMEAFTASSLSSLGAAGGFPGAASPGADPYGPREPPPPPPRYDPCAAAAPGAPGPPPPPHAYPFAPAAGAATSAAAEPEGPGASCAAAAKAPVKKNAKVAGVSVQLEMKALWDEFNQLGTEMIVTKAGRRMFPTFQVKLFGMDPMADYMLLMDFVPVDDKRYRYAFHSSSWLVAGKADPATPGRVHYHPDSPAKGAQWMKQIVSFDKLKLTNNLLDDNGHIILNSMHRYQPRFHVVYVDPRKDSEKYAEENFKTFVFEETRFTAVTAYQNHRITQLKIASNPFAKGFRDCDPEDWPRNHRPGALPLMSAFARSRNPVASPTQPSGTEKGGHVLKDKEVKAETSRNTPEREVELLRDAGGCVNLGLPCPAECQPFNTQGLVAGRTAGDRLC

Variants of: B1
Conditions: with tbx1_human TBX1, O43435

T52S was tested. Which “effect of a mutation on the interaction” value did it give?
Its value is “decreasing interaction strength”.

With V179D as the variant, how does the “effect of a mutation on the interaction” value read?
The value was “with no effect”.

With P30L as the variant, how does the “effect of a mutation on the interaction” value read?
The value was “with no effect”.

D113N was tested. Which “effect of a mutation on the interaction” value did it give?
Its value is “with no effect”.
